# B1: imdevimab (antibody, V domains shown)
# VH: QVQLVESGGGVVQPGRSLRLSCAASGFTFSNYAMYWVRQAPGKGLEWVAVISYDGSNKYYADSVKGRFTISRDNSKNTLYLQMNSLRTEDTAVYYCASGSDYGDYLLVYWGQGTLVTVSS
# VL: QSALTQPASVSGSPGQSITISCTGTSSDVGGYNYVSWYQQHPGKAPKLMIYDVSKRPSGVSNRFSGSKSGNTASLTISGLQSEDEADYYCNSLTSISTWVFGGGTKLTVL
# notes: source: Regeneron
# B2: casirivimab (antibody, V domains shown)
# VH: QVQLVESGGGLVKPGGSLRLSCAASGFTFSDYYMSWIRQAPGKGLEWVSYITYSGSTIYYADSVKGRFTISRDNAKSSLYLQMNSLRAEDTAVYYCARDRGTTMVPFDYWGQGTLVTVSS
# VL: DIQMTQSPSSLSASVGDRVTITCQASQDITNYLNWYQQKPGKAPKLLIYAASNLETGVPSRFSGSGSGTDFTFTISGLQPEDIATYYCQQYDNLPLTFGGGTKVEIK
# notes: source: Regeneron
# Target: Delta RBD WT (SARS-CoV-2, Delta variant (B.1.617.2), L452R)
# Assay: SPR; Biacore T200; […]; HBS-EP, 25 °C; 1:1 binding model
# Conditions: both partners purified
row,Binder,Kd [nM]
1,B1,9.4
2,B2,0.36

# Reference: paper PMC10246534 (Nature Communications, 2023)
